This note sets out measurements from paper PMC7595633 (PLoS Neglected Tropical Diseases, 2020).

Data set [1] concerns the molecule itself. The data set is described as follows: AUC; sedimentation equilibrium; tetramer to dimers; 0.5, 0.75 and 1.0 mg/mL; 8,000, 10,000 and 12,000 rpm, 4°C; global fit in SEDPHAT.
Data set [2] deals with the molecule itself. Briefly: native gel or EMSA; PhastGel gradient 8-25%, room temperature; 1 mg/mL (methods), 2 mg/mL (legend of Fig 1D); Coomassie stained. For orientation: In EMSA bound probe runs differently from free probe, usually more slowly.

Several values for one entry are separate records, joined by “and”; a condition that tells them apart may be missing. Equal entries are not always repeated.

B1: Trypanosoma brucei selenophosphate synthetase (TbSEPHS2), recombinant full-length (enzyme, UniProt Q38A34 1-393, looked up)
chain: MSEKEGKVIPETNGMKRPRFDPVKLGLPEEFTLTDYTRLKGCSCKVPQPELLALLQSVSTTPGRRDVGMDCSIVKLQHKDETGKPLYMVSTTDFFFPSVEDPYLQGQIGAANVLSDLYSTGIDRCDTVLMLLAASTDMDKTEREVCTQEMMKGFVDHVRLAGSDVTGGQTVMNPWPLIGGIATSVVAESQMIRPTGLQPGDILVLTKPLGCQIAVNLKQWLRRPSPIFEEQIQGKMDSEEIEELYNAAADGMKRLNRMAAALMHSHGAHGATDVTGFGILGHAKNLGSAQKADVCLVLDSLPMYRGAVKASKLMGDKYRLFEGYAAETSGGLLVAFGTREEAEGYIRELYETDGEPAWVVGRVVRREGSAPYALLQKDYKIIEVGAKVNDKII
notes: selenophosphate synthetase SEPHS2 of Trypanosoma brucei, Tb927.10.9410, 393 residues (from the limits of the truncated constructs); also called SPS2; TbSPSH2
Broadly, the Kd is the concentration at which binding is half-saturated. Higher therefore signals lower affinity. The term stoichiometry N denotes a count of units in the complex or per binding partner. In the case of B1, the equilibrium dissociation constant (Kd) in data set [1] was 161 ± 10 µM. In addition, the “stoichiometry N” value in data set [2] is 2 and 4.
